# Laboratory results taken from the DeepSol protein solubility set.
# Test: soluble on expression in E. coli; label from the status in PepcDB or PDB records
row,Sequence,soluble on expression in E. coli
1,MLGSLAAEKRSVFQTSCCVRYKGCMLGVGPTVWGVVWGLGCTVEARGLRKRFGGRTAVAGVSFSVGDGERACIMGPNGSGKTTLLRMVSGVLRPSGGSVRVCGYDVWGDGWREARGLIGFAPQDPPMARRMTGAEYITVVGGLLGLSPGVARREARRVLEMLGFEDVLGRVVARLSGGQRRALGIALALASNPEVVVLDEPGSGLDVRARESLWASLRKAFKGRTVLFSSHDPQEAEAESDRVLIMHRGRLAAWGKPRELIQRYAPKPRVRVWADRAPDGLEPVHTGPGFSDYLIEAPGDVARIASAYSGAGILVERIEVLKPSLREVFFAVTGEEMD,soluble
2,MLGVRMSGSVLDEEAEKLMDYDYLLEKLYKKVPPKSGTSEYRIPEPQIIRIGSQTVIRNFREIAQALKRDPKLVARYLQKELATAASYEEESGQLILNVKVSRKVVNQFLQLFMKTYVRCPTCGSIDTKLLRQERAYMLKCEACGAEQPVKPI,soluble
3,MLIFRTSPMSRREKSLPIEPKYTKPQANGSSFPPIFTLEGSTPCKKTARKLIDPVVNSVDSLCYLARKIVKMQEEKKRQKSNSFLIDYLVGDNFITEFREQPAQASPAVDVEDPMVSLVLGCPFGAIGQERRMSQDFPFQRRSFDMVSNRTSTSESSSCSSTDNTYKNAGKFLSLQEYLEQNNLLPPSTMPFGENSGFHGYNPQMNVHNNSTRNGNVENREQRNNSTSPPRGNPPHPLCCCFCFGTASEFARLHTLPAPRKDDRGPWSDHCSKKRGRVVCPKLRSMVCGICGATGDNAHTTKHHLEAFGDD,not soluble
4,MLISIESKEHYRILCIDGGSTDQTIPMIERLQRELKHISLIQLQNASIATCINKGLMDIKMTDPHDSDAFMVINPTSIVLPGKLDRLTAAFKNNDNIDMVIGQRAYNYHGEWKLKSADEFIKDNRIVTLTEQPDLLSMMSFDGKLFSAKFAELQCDETLANTYNHAILVKAMQKATDIHLVSQMIVGDNDIDTHATSNDEDFNRYIIEIMKIRQRVMEMLLLPEQRLLYSDMVDRILFNNSLKYYMNEHPAVTHTTIQLVKDYIMSMQHSDYVSQNMFDIINTVEFIGENWDREIYELWRQTLIQVGINRPTYKKFLIQLKGRKFAHRTKSMLKRLEHHHHHH,not soluble
5,MLITVYCVRRDLSEVTFSLQVSPDFELRNFKVLCEAESRVPVEEIQIIHMERLLIEDHCSLGSYGLKDGDIVVLLQKDNVGPRAPGRAPNQPRVDFSGIAVPGTSSSRPQHPGQQQQRTPAAQRSQGLASGEKVAGLQGLGGPALIRSMLLSNPHDLSLLKERNPPLAEALLSGSLETFSQVLMEQQREKALREQERLRLYTADPLDREAQAKIEEEIRQQNIEENMNIAIEEAPESFEQVTMLYINCKVNGHPLKAFVDSGAQMTIMSQACAERCNIMRLVDRRWAGVAKGVGTQRIIGRVHLAQIQIEGDFLQCSFSILEDQPMDMLLGLDMLRRHQCSIDLKKNVLVIGTTGTQTYFLPEGELPLCSRMVSGQDESSDKEITHSVMDSGRKEH,soluble
6,MLKDQDRIFTNLYGLKDKSLKGVMARGHWDGTKQIIEKGRDWIINEMKASGLRGRGGAGFPTGLKWSFMPKENDGRPHYLVVNADESEPGTCKDREILRNDPHTLIEGCVIAGFAMGAHTAYIYVRGEYMREREALQAAIDECYDAGLLGKNNKNGWDYDIYVHHGAGAYICGEETALLESLEGKKGQPRLKPPFPANMGLYGCPTTVNNVESIAVAPTILRRGASWFSSIGRPNNVGTKLFMVSGHVERPCTFEDALGLSFRELIEHHCGGIRGGWDNLLGVIPGGASCPIVRGEDMKDAIMDFDGMREVKSSFGTGGMIVMDKSTDVIKAIARIAAFFKHESCGQCTPCREGTGWMWRVLERMVKGNAQKREIDMLFEVTKQIEGHTICALGDAAAWPVQALIRNFRPEIEKRIDQYTYRAMDDGAVLEAAEAAALEHHHHHH,not soluble
7,MLKIIRAGMYTTVQDGGRHGFRQSGISHCGALDMPALRIANLLVGNDANAPALEITLGQLTVEFETDGWFALTGAGCEARLDDNAVWTGWRLPMKAGQRLTLKRPQHGMRSYLAVAGGIDVPPVMGSCSTDLKVGIGGLEGRLLKDGDRLPIGKSKRDSMEAQGVKQLLWGNRIRALPGPEYHEFDRASQDAFWRSPWQLSSQSNRMGYRLQGQILKRTTDRELLSHGLLPGVVQVPHNGQPIVLMNDAQTTGGYPRIACIIEADMYHLAQIPLGQPIHFVQCSLEEALKARQDQQRYFEQLAWRLHNEN,soluble
8,MLKKGNEMKAVIVYASVHHGNTKKIEEAMASVISADVIDVTRKIKPDLSGYDVIGFVSGVYFHTFHEGIKKCIEENMSSKGQKVFLVATCGLGYRDYTKGMKDTLAKKDVLCMGSFQCRGWDTYGIFGKIGGIAKKHPNDRDLKEAQEFVLKTVCKTNNLEHHHHHH,not soluble
9,MLKRCNAKYSCEIIKEKRADGDDRMATIDLQKKSVKIVLEKKQLTKVTARVGLVLDITGSMRPLYKNGTVQNVVERILAVADQFDDNGLLDVWVYDNEFSRLKPVSEKDFSGYVDREILNNDRLHKFGRNDEPPVMKDVLRKYVTEEPSSYPAFIVFINDGGCKKSIKPIIEASSDKPVFWQFVGIGNGNFDFLNKLDTLEGRVIDNTNFLHIEEIDRISDDELYDALLAEFPFWLKEAKEKGIVREQEPPAEKPKKKGFFSRLFSKLEHHHHHH,soluble
10,MLKSASSLVRSFIRPQTFRLCSSSSTTQGSPSVSSDDEPVILENNPYTKEPRKSFLCSTGVELDYKNSRLLQQFVSTFSGRVYDRHITGLCDENKKKLIEAIAKSRRAGFMPIFVKDPKYTRDPKLFDPLKPIRPHSFA,not soluble
11,MLKSILRGALVATKPGPARRQFSFTALLRSETQPKEIINLERVQVRKMKKRRPVASSVVPKSLREPSVVAMALSESLNLNEVIMDAQLNGMYNITAIDEDADDSLHFVKKLEYTINPGELSEIFVFRDGVVVFWNVDSSQRSHILRELERYADAPYDSMIVMDEQDRMFYKFSEQSTGSTIRQDRFYLSGKHLDAFHGSNEAILERFALSQGFAASVKIGVWESLLNNLAEPLSNTTKSLTLGKIPWSRKQALMRSGEFAALRHSINLDCTLLNKDFYWERPELEKYYTMTGRHFSLDRRIGLLNKRLDYCEELVKMVDNTIALRHASHLEWMIIVLIVIEVIFDVFHFADKTPKSVMIVPDSSKAQQLRNEGN,not soluble
12,MLKVFADRGGTFTDIVAVTHNQEIIERLSKSTERFLIVPLPNQEWIIVYKLLSENPEQYQDAVIQGIRDIIGLSRNEPISDEAIEVVKMGTTVATNALLERKGDRVVLLITTGFKDALRIGYQNRPNIFAQRIVLPTMLYEQVIEVEERYDAQGNELTPVNIAQVKEDLQAVYHTGIRSCAIILMHSDRYPIHEQQVAQIAQEIG,not soluble
13,MLKVLVVDDEMLARDELKYLLERTKEVEIIGEADCVEDALEELMQSRPDIVFLDIQLSDDNGFEIANILKKMKNPPAIVFATAYDQYALQAFEVDALDYILKPFDEERIVQTLKKYKKQKQSQIETKHEIKGTDVTVEMHKLALPIEESIVLVNIEDIVYVGLVDGKVTVKTMRETYVTHDTLVILEKKLPQVSFMRVHRSFIANINHITEIQPWFNSTYNLIMKEGSKVPVSRTYAKELKKLLRI,not soluble
14,MLLDFPHGQFGFTNSCIIAVIWLSLSPTLNRGQLNLDRFKFWLPTSQLLVLDVCLFDAFALEHHHHHH,not soluble
15,MLLEEVRAGDRLSGAAARGDVQEVRRLLHRELVHPDALNRFGKTALQVMMFGSTAIALELLKQGASPNVQDTSGTSPVHDAARTGFLDTLKVLVEHGADVNVPDGTGALPIHLAVQEGHTAVVSFLAAESDLHRRDARGLTPLELALQRGAQDLVDILQGHMVAPL,soluble
16,MLLENFYKIIHIKEREDGKQEIEIELNPGHVLYQGHFPGQPVVPGVCTLQIIKESAEQIASQPLQYVQIASSKFLSAINPLETPLLQLFIRLEKTEEHLFKLQAEGICNGKEFIKLKAVLMASKYQLEHHHHHH,soluble
17,MLLHTFFDDSKTSVEETPRMFVARLFGSPVSTSIIPTEKESINNNNQETAKMPLDPMDSLWMSKAPQVSDLVVQPNVTFKAVTGGSPHSPSASIPIAGADDSIRPDYDTDCLWKPPTRSARVQKERTISMDSTDSEIGALGGRKFSTNEGASPAPTSPIDAQPRARRMSISEMLFGSSPKSFSWGMESNTTNTTTTSNSGGGDIGERKMSITDDPRFKDFMKHQSKIIGDDGISAAGFKRSNYMKD,not soluble
18,MLLKTKHFGEINIDESKIIEFKDGIPGFENLKRYVVLYDGDKNSPFRWLQNVDDGELAFAVVNPFMVVKDYDFEIPDEAVESLGIESILDVMVLSIVVVPEDISKMTMNLKAPVIINTKNNKGMQVVLDTDRYSVRHYIIEELRRQEVNVGAGSDEKEK,soluble
19,MLLMKTASKTNNSVRRNMNTHSAISELIAPWLELTDPKLAALVITHLELDSRLIKSGDTFVAIQGHAVDGRQFIDKAIAQGANLVLAEADAQHLNGWVEYRAGVPVIYLAELGQHLSELAGRLYGGHHNQLIGVTGTNGKTTITQLIAQWLELLGHKAAVMGTTGNGFLNALEPAANTTGNALQIQATLRDLAERGAQYTALETSSHGLVQGRVKKLHFVAGVFSNLSRDHLDYHGTMEAYAAAKFSLFSEHACQNAIINVDDAVGAQWVKQLPQAIGVSLVTKPNTAQAIWAREVAYAESGITLNFESSWGEGELHAPLIGEFNACNLLLALATLLSLGFEKSALLATAPKLRPVLGRMELFQREQKAKMVVDYAHTPDALEKALRALRVHCAGQLWAIVGCGGDRDRGKRPMMAAIAEQFADRVILTDDNPRSESPQAIVADMVAGLTYPERAHIEHHRFQAASYALQHAGAQDIILLAGKGHEDYQVLANETIHYSDRETAQQLLELQP,not soluble
20,MLLNEKDFKNEGVKIAALIMAESARTAPKSKGEDTIEIVYVDGEEMEKIAAKMEEMAEGGDKDFIRDAESVRKSQAILLIGAKGDRTVGVNCQACGFESCSEFKKADRKGENFVGPNCAFRMIDLGIALGSAVKVSAMLGIDTRIMYRIGIAAKKLGMIDADVVMGVPLSALGKSPYFDRAPKK,not soluble
21,MLLPWLFPQTKRNNFAAKVNSENQEKLLILRKEDASASSGQSELSLVQMGLKQVVASSFWLVFEFQHFKVGCNAARKFPVNGIANAQPQQCGTYRSHNGKLSIAIGHFCRIHQRAHTHFAIAKIAEFNPAVHCHHVVWHLFWRTHLGAIQLCV,not soluble
22,MLLQELLGIDEDIYLIEESYTSQRNPELTLQYLNRFLNFPDIENIRIIRVRQAGHTTGLLFFNPADEDVPVDFWSVFTGAFAQPALKEKFETLADSLLNLTSPEKDIELLHETWFNAVNEYYSLMLVNRNLCTSCSVKPESYGNVFSENRIKRVAEILELLRKKGYYPEGRLLEVCCGNGMSTLALYRSGLDPLAIEINKCTICQGLEQGVLNPQRVMVMDAAAVSRYFEPGSFDAVMGFMLGLVYEFNKGLWVRIVREAVSVAADGAVLLFTVSSKPEIEILADALFRAGVDGEIVDNTDSEGAYDQWLFVGRRQKNTST,not soluble
23,MLLVSGCSGELYSSHTHSLRWFCQSPEGCEREAEVKALARVLLYTDTFTLYTDYGQFAVDFVQRVPSDELPRECDALYGLSLFGHELESSTLCSVGGDAYEMRISVPNRNPSSASEWLAEMRPL,not soluble
24,MLMIKVVCGKKGSGKTRALVDSANSFVSTALGDAVFIDGSSQLMCDLHHKVRFINVSEFPIDISSSCTFLGFLCGIISSNFDVKWVYMDDLIRIVRKPPHEMKELFDGFNELSEKFNVDFYVSIEGDPDSMPDFIKVCY,not soluble
